Laboratory results published in patent US20240218057A1 (ROCKEFELLER UNIVERSITY, published 2024).
Changes are numbered by the printed parent chain.

B1: C1047 (antibody, V domains shown)
VH: EVQLVQSGAEVKKPGESLKISCKGSGYSFISYWIVWVRQMPGKGLEWIGIIYPGDSDTIYSPSFQGQVTLSADKSISTAYLQWSSLKASDTAIYYCAKMVTSGTSYYETRGYASSGPFDNWGQGTLVTVSS
VL: DIQLTQSPSSLSASVGDRVTITCRASQGISSALAWYQQKPGKAPKLLIYDASSLESGVPSRFSGSGSGTDFTLTISSLQPEDFATYYCQQSDNFGPGTKVDI
B2: C1035 (antibody, V domains shown)
VH: EVQLVESGGGLIQPGGSLRLSCAASGLTVSRNYMNWVRQAPGKGLEWVSVMYSGGSTFYADSVKGRFTISRDNSKNTLYLQMNSLRAEDTAVYYCARESYGMDVWGQGTTVTVSS
VL: EIVLTQSPGTLSLSPGERATLSCRASQSFSSTYLAWYQQKPGQAPRLLIYGASSRATGIPDRFSGSGSGTDFTLTISRLEPEDFAVYYCQQYVTSPWTFGQGTKVEIK
B3: C1036 (antibody, V domains shown)
VH: B2 VH with T28I, A40V, S53A, N73D, A87P
VL: B2 VL with F29I
B4: C1038 (antibody, V domains shown)
VH: QVQLVQSGAEVKKPGASVKVSCKASGYTFTSYYMHWVRQAPGQGLEWMGIINPSGGSTRYAQKFQGRVTMTRDTSTSTVYMELSSLRSEDTAVYYCAREGVGGTSYFDYWGQGTLVTVSS
VL: SYELTQPPSVSVAPGKTARITCGGNNIGSKSVHWYQQKPGQAPVLVVYDDSDRPSGIPERFSGSNSGNTATLTISRVEAGDEADYYCQVWDSSSDPYVFGTGTKVTVL
B5: C1039 (antibody, V domains shown)
VH: QVQLVQSGAEVKKPGASVKVSCKASGYTFTSHYMHWVRQAPGQGLEWMGIINPRTRYAQMFQGRVSMNRDTSTSTVYMELSSLTSEDTAVYYCAREGLGATAYFDYWGQGTLVTVSS
VL: B4 VL with R19G, N25S, N26D, T106S
B6: C1043 (antibody, V domains shown)
VH: EVQLVESGGGLVQPGRSLRLSCAASGFIFDNYAMHWVRQAPGKGLEWVSGISWNSDSIGYADSVKGRFTISRDNAKNSLYLQMSSLRAEDTALYYCAKDLLGNYYYYTLDVWGQGTTVTVSS
VL: QSALTQPASVSGSPGQSITISCTGTSSDIGGNNYVSWYQQHPGKAPRLMIFDVSYRPSGVSNRFSGSKSGNTASLTISGLQAEDEADYYCISYTTSSTLGVFGGGTKLTVL
B7: C1044 (antibody, V domains shown)
VH: QVQLQESGPGLVKPSQTLSLTCTVSGGSISSGNYYLTWIRQPAGKGLEWIGHIYTSGSTNYNPSLKSRVTISVDTSMNQFSLKLSSVTAADTAVYYCARDIPPTWYFDLWGRGTLVTVSS
VL: SYELTQPPSVSVAPGKTARITCGGNNIGSKNVHWYQQKPGQAPVLVVYDDSDRPSGIPERFSGSNSGNTATLTISRVEAGDEAGYYCQVWDSTSDHLFWVFGGGTKLTVL
B8: C1045 (antibody, V domains shown)
VH: B7 VH with G27D, L36W, T37S, T59P, N62K, V73L, M77K, S85T, V94M, P103S
VL: B7 VL with T21P, N25T, N26D, V46A, N68S, G84D, T93S, S94G, H96R, F98S
B9: C1046 (antibody, V domains shown)
VH: EVQLVQSGAEVKKPGESLKISCKGSGYSFTSYWIGWVRQMPGKGLEWMGIIYPGDSDTRYSPSFQGQVTISADKSISTAYLQWSSLKASDTAMYYCARMVTSGTYYYDNSGYSSSGPFDYWGQGTLVTVSS
VL: DIQLTQSPSSLSASVGDRVTITCRASQGISSALAWYQQKPGKAPKLLIYDASSLESGVPSRFSGSGSGTDFTLTISSLQPEDFATYYCQQFNNFGPGTKVDIK
B10: C1040 (antibody, V domains shown)
VH: QVQLVESGGGVVQPGRSLRLSCAASGFSFINYNMHWVRQAPGKGLEWVAVIWYDGSNKYYADSVKGRFTISRDNSKNTLYLQMNSLRVEDTAVYYCARDPAITEAEIDYWGQGTLVTVSS
VL: DVVMTQSPLSLPVTLGQAASISCRSSQSLVHSDGNTYLNWFQQRPGQSPRRLIYRVSNRDSGVPDRFSASGSGTDFTLKISRVEAEDVGVYYCMQGTHWPWTFGQGTKVEIK

target: T1, SARS-COV-2 RBD (SARS-COV-2, UniProt P0DTC2 319-539); assay: ELISA, RBD coated on plate
T1 construct: also called WT RBD

| Binder | EC50 [ng/mL] |
| --- | --- |
| B1 | 2.46 |
| B2 | 2.05 |
| B3 | 1.02 |
| B4 | 2.46 |
| B5 | 2.61 |
| B6 | 2.77 |
| B7 | 3.22 |
| B8 | 2.57 |
| B9 | 3.8 |
| B10 | 2.08 |
